In publication PMC4575469:

Each sequence was assayed on TetR (assay: SPR). Conditions: streptavidin surface, promoters at 30-50 RU, TetR 4-62 nM, regeneration with 1 M NaCl and 1 M MgCl2, running buffer, pH and temperature not given in the ….

Point of comparison: “CGCGCGCCTTTCTGCGTTTATATACTAGAGTCCCTATCAGTGATAGAGATTGACATCCCTATCAGTGATAGATATAATGTGCACTACTAGAGTAGTGGAGGTTACTAGATGGTGAGCAAGGGCGAGGAGCTGTTCACCGGGGTGGTGCCCATCCTGCGCG (double strand) [L10 promoter]”, Kd 5 nM. Against it:
- CGCGCGCCTTTCTGCGTTTATATACTAGAGTCCCTATCAGTGATAGAGATTGACATCCCTATCAGTGATAGATATAATGAGCACTACTAGAGTAGTGGAGGTTACTAGATGGTGAGCAAGGGCGAGGAGCTGTTCACCGGGGTGGTGCCCATCCTGCGCG (double strand) [L12 promoter] — 1.6-fold higher, 8 nM
- CGCGCGCCTTTCTGCGTTTATATACTAGAGTCCCTATCAGTGATAGAGATTGACATCCCTATCAGTGATAGATATAATGGGCACTACTAGAGTAGTGGAGGTTACTAGATGGTGAGCAAGGGCGAGGAGCTGTTCACCGGGGTGGTGCCCATCCTGCGCG (double strand) [L11 promoter] — within 1.5-fold, 6 nM
- CGCGCGCCTTTCTGCGTTTATATACTAGAGTCCCTATCAGTGATAGAGATTGACATCCCTATCAGTGATAGATATAATGCGCACTACTAGAGTAGTGGAGGTTACTAGATGGTGAGCAAGGGCGAGGAGCTGTTCACCGGGGTGGTGCCCATCCTGCGCG (double strand) [L09 promoter] — within 1.5-fold, 6 nM
